Assay results published in the supplement of paper PMC9170038.

Test system: MS2 coat protein
Test: apparent KD of MS2 coat protein; higher = weaker reporter binding
Conditions: Eterna round: R107; input ligand: theophylline 20 uM
Outline: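 Each design's apparent KD comes from the median of binding-curve fits to its normalised clusters. Those clusters carried RNA switches transcribed on-chip from Illumina sequencing clusters. SNAP-549-labelled MS2 coat protein was titrated onto them in twofold steps (0.7 or 1.5 nM to 3 µM; per step 0.8–1.5 h down to 10–20 min). Conditions were 100 mM Tris-HCl pH 7.5, 80 mM KCl, 4 mM MgCl2, without or with constant ligand.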

Sequence	apparent KD of MS2 coat protein
GGUUACUCUACGGCCGCCACUGAACAUGAGGAUCACCCAUGUAAUGUUCAGUAGUCUUUAGACAACAGGACCGGGUAGUGUAACC [Tryptophan B 6]	236 nM
AGAGCAUUGACGGCCGCCACUCGUGUCACAUGAGGAUCACCCAUGUGAUGGGUGAUAGCCCGGUUGAGGACCGGGUCAAUGCUCA [Omei Tryp SS B v7]	16.8 nM
GCCGGGCCCGCGGCCGCCACUGAGAGAGUCGUGUGAACAUGAGGAUCACCCAUGUAAUAUAUAUACAGGACCGGGCGGGCCCGGC [4.X]	20.1 nM
AAUAAUAUCCUCAUGUGAGUCGUACCGUAACGAGGACCGGUACGGCCGCCACUCGAACAUGAGGAUCACCCAUGUAGGUACGACA [M'-T'-T-MS2-T'' - Design 8]	182 nM
GCGAUGGAGCGAAGGAGCGUGCUGGUACAUGAGGAUCACCCAUGUGAGUCGCAGCGCUAAGCACAGGUAGGUCGCGCUCCAUCGC [EAB NP+V+V2 #11]	35.3 nM
UAAUACCAGGUCAACGUACCAGGUGAUCAACGAGGACCGGUACGGCCGCCACUCGAAACAUGAGGAUCACCCAUGUAAGACCUGG [|T'-M'-Trp-Ms2|_Design 2_ML2]	185 nM
GGGACACCGAGAAGGAGCGCAUCCAAACCACACAUGAGGAUCACCCAUGUAUAAAUAUGCAUGCAGGUAGGUCGCUCGGCGUCUC [Orordionbi]	112 nM
GGUCUCGCGGGCGAUACCAGCUUGAUCGUACUGGCCUGGUACAUGAGGAUCACCCAUGUAAGCCCUUGGCAGCGCGCGCGAGACC [#1 Exclusion - Theophylline B Attempt #5 (HarryS)]	16.4 nM
GCAUCCUAGUCGGCCGCCACUGCAAUUGUAGUACUGCUACAUGAACAUGAGGAUCACCCAUGUAGCAGGACCGGGACUAGGAUGC [(Trp1)-(TM)''-(TM)'-(Ms2)-(Trp2)_Design10]	78.5 nM
UGUAUGUGAUCUGAUACCAGCCUCAUAGCUUGAGGAUCACCCAAGUGGAGCGGAAACGCUGGCCCUUGGCAGCAGAUCGCAUACU [TheoBS 1 #AlternativeMS2]	199 nM
CGGACAUGAGGAUCACCCAUGUACACUGAAGGAGCGUCGAGAACGACAGGUAGGUCGCAGGCUAAGGAAGGUGAUGCUCAAGAAG [Exclusion Arginine A GF5]	47.3 nM
AAAAUCCUACUUGAGGAUCACCCAGGUGAAGGAGCGCCCGAAAGGGCAGGUAGGUCGCACCUGAGGAUCACCCUGGUAAACCUAA [ArgEX 8 #DoubleMS2 #OpenEnded]	135 nM
AGAUGCCACUGUGGAUAGCACGAUGCCGAUACCAGCUAGGAAACUAGCCCUUGGCAGCGGUACAUGAGGAUCACCCAUGUAUCCU [EThA NP+V+V2 #9]	18.3 nM
AAAUAAAUACAUGAGGAUCACCCAUGUGAAGGAGCGCCCGUUAGGGCAGGUAGGUCGCGCAUGAAUAACUCCGUGCAAAAGCACA [ArgEX 19 #OpenEnded]	37.3 nM
UGCUACAUGAGGAUCACCCAUGUGGGUGAUACCAGCAUUCGUUUAUGCCCUUGGCAGCGCAGCCGAACCAAUCAUUCGGCAGAAA [Artiusar]	201 nM
AGGGACAUGAGGAUCACCCAUGUUGAAACUCGAGGACCGGUACGGCCGCCACUCGUAUAAUCGAUGUCCAUUUGGGAUUCCGGCU [theeternabot_sameState_MS2_Trp_A_17]	32.8 nM
GCUAGGUCAUCGGCCGCCACUAACGACGGUUCCAACAUGAGGAUCACCCAUGUGCCACAUGCGCAUAGGACCGGGAUGACCUAGC [SSTB NP+V+V2 #5]	51.2 nM
UGUACUAUGUGAAGGAGCGCCACAUGAGGAUCACCCAUGUAAACAUGAGGAUCACCCAUGUGGCAGGUAGGUCGCACAUAGUACU [ArgBS - Double MS2 - I don't expect this to work]	203 nM
CACAGUGCGAAUUUGAAAUCGCACGAUCCUCGAGGACCGGUACGGCCGCCACUCGCGCGGGUCGUACAUGAGGAUCACCCAUGUC [Beertele]	600 nM

Same assay, conditions: Eterna round: R107; input ligand: theophylline 2 mM

Sequence	apparent KD of MS2 coat protein
AUCUAUAGAGCGGCCGCCACUGAAUACAUGAGGAUCACCCAUGUAAUGUUAAGGUGGUCCUAGCUCAGGACCGGGCUCUAUAGAU [Tryp B Ex t4]	53.3 nM
UGUAUGUGAUCUGAUACCAGAGUGACGCGAAAGCGAAACCUGAGGAUCACCCUGGUAAAACUCCCUUGGCAGCAGAUCGCAUACU	23.9 nM
UCGGGCAGAGCGGCCGCCACUGUUUGGCAUGCGGAUGACGGAACAUGAGGAUCACCCAUGUUGAUUAGGACCGGGCUUGCGGAGA [eefullin]	25.1 nM
CUAUAAAUAUGAAGGAGCGUCGAAAAUGGGUAAACAUGAGGAUCACCCAUGUAAAGGGAACGACAGGUAGGUCGCAUAUUUAUAG [AstromonsSSArgB#11]	257 nM
AUAUAUACAUGAGGAUCACCCAUGUUAUUUCGAGGACCGGUACGGCCGCCACUCGAUAGAGUAGAAGUAUUUUGGGAUAGUUGAU [JR_SSTryptoA_Sub015]	23.6 nM
AGCCACUCGAGUGAUCCUCACGAGUGGCAACGAGGACCGGUACGGCCGCCACUCGAAUAACAUGAGGAUCACCCAUGUUUAUAAU [#01 Tryptophan A - Same State]	258 nM
AGAGCAUUGACGGCCGCCACUCAUGUCACAUGAGGAUCACCCAUGUGAUGGGUGAUAGCCCGGUUGAGGACCGGGUCAAUGCUCA [Omei Tryp SS B v1]	20.4 nM
AGCCAUGGAAACAUGGCGGCGGCUUGGGCGCGAGGACCGGUACGGCCGCCACUCGGGCAACAUGAGGAUCACCCAUGUUCCUCAU [ETA NP+V+V2 #18]	317 nM
UUUUUUUUUUACAUGAGGAUCACCCAUGUUCGAGGACCGGUACGGCCGCCACUCGUUUUUGUUGUGGUAGGGUUAGGGUUAGGGU [Turkey Lurky]	44.8 nM
CGGGCCGCUGCGGAUACCAGUUGAGCAUAGGUAGUGUAUGACAUGAGGAUCACCCAUGUUAACCCUUGGCAGCCGAGAGGGCAGA [theeternabot_exclusion_MS2_Theo_B_13]	15.4 nM
AUUCAUGGAAACAUGACAUAGGGAUCUAGCCGAGGACCGGUACGGCCGCCACUCGCUUGGAGGCACAUGAGGAUCACCCAUGUUA [SS Tryp A #6]	140 nM
AGCGCAUCCGUAUAGGAUGCGCUCCAUGAAGGAGCGCGGGAAACCGCAGGUAGGUCGCGUGACAUGAGGAUCACCCAUGUGUAUU [#17 Same State - Arginine A]	22.8 nM
AGCUUGUAGUCGGCCGCCACUAAUAGGGAUCCUAUCGAGGCGGGUAACAUGAGGAUCACCCAUGUUAGGACCGGGACAGCGAGGA [Cetian]	11.6 nM
GGUUACUCUACGGCCGCCACUGAACAUGAGGAUCACCCAUGUAAUGUUCAGUAGUCUUUAGACAACAGGACCGGGUAGUGUAACC [Tryptophan B 6]	271 nM
AGAGCAUUGACGGCCGCCACUCGUGUCACAUGAGGAUCACCCAUGUGAUGGGUGAUAGCCCGGUUGAGGACCGGGUCAAUGCUCA [Omei Tryp SS B v7]	16.2 nM
GCCGGGCCCGCGGCCGCCACUGAGAGAGUCGUGUGAACAUGAGGAUCACCCAUGUAAUAUAUAUACAGGACCGGGCGGGCCCGGC [4.X]	15.7 nM
AAUAAUAUCCUCAUGUGAGUCGUACCGUAACGAGGACCGGUACGGCCGCCACUCGAACAUGAGGAUCACCCAUGUAGGUACGACA [M'-T'-T-MS2-T'' - Design 8]	238 nM
GCGAUGGAGCGAAGGAGCGUGCUGGUACAUGAGGAUCACCCAUGUGAGUCGCAGCGCUAAGCACAGGUAGGUCGCGCUCCAUCGC [EAB NP+V+V2 #11]	34.5 nM
UAAUACCAGGUCAACGUACCAGGUGAUCAACGAGGACCGGUACGGCCGCCACUCGAAACAUGAGGAUCACCCAUGUAAGACCUGG [|T'-M'-Trp-Ms2|_Design 2_ML2]	141 nM
